From PMC11282955 come the findings set out here.

This assay has as its target human angiotensin-converting enzyme 2 (hACE2) (UniProt Q9BYF1). Nature of the assay: SPR. The settings on record: parent: est. 1.5 nM; read off a plot.

For the substance “BA.2.86 spike receptor-binding domain (RBD) L455F; F456L”, the Kd is 0.8 nM.

Take “BA.2.86 spike receptor-binding domain (RBD) N417K; H505Y; L455F; F456L”: the Kd was 0.53 nM.

“BA.2.86 spike receptor-binding domain (RBD) D450N”: the dissociation constant (Kd) was 0.52 nM.

As to “BA.2.86 spike receptor-binding domain (RBD) N417K”, the equilibrium dissociation constant (Kd) was determined as 0.62 nM.

For “BA.2.86 spike receptor-binding domain (RBD) H505Y”, the dissociation constant (Kd) turned out to be 0.58 nM.

In the case of “BA.2.86 spike receptor-binding domain (RBD) L455S”, the Kd was determined as 4.3 nM.

“BA.2.86 spike receptor-binding domain (RBD) W452L”: the Kd amounted to 0.58 nM.

For “BA.2.86 spike receptor-binding domain (RBD) H445V”, the dissociation constant (Kd) turned out to be 0.46 nM.

Consider “BA.2.86 spike receptor-binding domain (RBD) K481N”, for which the equilibrium dissociation constant (Kd) worked out at 0.66 nM.

For the substance “BA.2.86 spike receptor-binding domain (RBD) N417K; H505Y”, the Kd worked out at 0.27 nM.

For the substance “BA.2.86 spike receptor-binding domain (RBD) P486F”, the Kd was 0.39 nM.

With “BA.2.86 spike receptor-binding domain (RBD) N354Q”, the dissociation constant (Kd) is 1.6 nM.

As to “BA.2.86 spike receptor-binding domain (RBD) ins483V”, the Kd is 0.88 nM.

On to “BA.2.86 spike receptor-binding domain (RBD) K484A”, for which the dissociation constant (Kd) amounted to 1.2 nM.

Consider “BA.2.86 spike receptor-binding domain (RBD) K403R”, for which the Kd turned out to be 1 nM.
